Assay results as given in paper PMC3734285, “Expression and Function of the Lipocalin-2 (24p3/NGAL) Receptor in Rodent and Human Intestinal Epithelia” (PLoS ONE, 2013).

What was measured:
[1] = molecular target: human lipocalin-2/NGAL receptor (hNGAL-R) (human (endogenous in Caco-2 BBE)) (UniProt Q8WUG5); test: MST; as a1 but co-incubated with 500 pM hNGAL as a binding competitor to A488-PC3
[2] = molecular target: human lipocalin-2/NGAL receptor (hNGAL-R) (human (endogenous in Caco-2 BBE)) (UniProt Q8WUG5)
[3] = molecular target: human lipocalin-2/NGAL receptor (hNGAL-R) (human (endogenous in Caco-2 BBE)) (UniProt Q8WUG5); test: MST; fixed amounts of colon-like Caco-2 BBE plasma membrane vesicles pre-incubated 5 min at room temperature with varying A488-PC3 (10-1000 nM); 50 mM Tris pH 7.4, 150 mM NaCl, 10 mM MgCl2, 0.05% Tween-20; Hill fit with coefficient 1.0
[4] = molecular target: human lipocalin-2/NGAL receptor (hNGAL-R) (human (endogenous in Caco-2 BBE)) (UniProt Q8WUG5); remark: listed apart in the source
[5] = molecular target: hNGAL-R (Homo sapiens) (UniProt Q8WUG5); conditions: cited from earlier work
Chain of hNGAL-R (Homo sapiens) (Q8WUG5 whole entry): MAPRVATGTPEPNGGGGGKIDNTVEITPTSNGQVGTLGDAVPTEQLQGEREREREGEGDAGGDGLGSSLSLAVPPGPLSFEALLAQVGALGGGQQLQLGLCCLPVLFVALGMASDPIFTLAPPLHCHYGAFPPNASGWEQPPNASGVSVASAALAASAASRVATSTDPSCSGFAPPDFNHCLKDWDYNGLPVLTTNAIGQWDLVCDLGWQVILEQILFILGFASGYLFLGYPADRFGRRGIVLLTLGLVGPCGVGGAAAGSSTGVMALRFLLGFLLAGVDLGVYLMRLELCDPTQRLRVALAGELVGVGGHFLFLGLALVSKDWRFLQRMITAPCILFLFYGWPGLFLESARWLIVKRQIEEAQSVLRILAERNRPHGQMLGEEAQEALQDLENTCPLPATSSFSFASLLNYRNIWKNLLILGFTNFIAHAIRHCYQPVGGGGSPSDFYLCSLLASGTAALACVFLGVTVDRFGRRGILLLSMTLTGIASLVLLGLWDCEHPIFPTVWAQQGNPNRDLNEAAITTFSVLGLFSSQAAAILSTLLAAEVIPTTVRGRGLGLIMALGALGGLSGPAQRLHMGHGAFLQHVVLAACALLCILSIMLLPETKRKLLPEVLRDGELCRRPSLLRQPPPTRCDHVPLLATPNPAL

Chain of human lipocalin-2/NGAL receptor (hNGAL-R) (human (endogenous in Caco-2 BBE)) (Q8WUG5 112-649): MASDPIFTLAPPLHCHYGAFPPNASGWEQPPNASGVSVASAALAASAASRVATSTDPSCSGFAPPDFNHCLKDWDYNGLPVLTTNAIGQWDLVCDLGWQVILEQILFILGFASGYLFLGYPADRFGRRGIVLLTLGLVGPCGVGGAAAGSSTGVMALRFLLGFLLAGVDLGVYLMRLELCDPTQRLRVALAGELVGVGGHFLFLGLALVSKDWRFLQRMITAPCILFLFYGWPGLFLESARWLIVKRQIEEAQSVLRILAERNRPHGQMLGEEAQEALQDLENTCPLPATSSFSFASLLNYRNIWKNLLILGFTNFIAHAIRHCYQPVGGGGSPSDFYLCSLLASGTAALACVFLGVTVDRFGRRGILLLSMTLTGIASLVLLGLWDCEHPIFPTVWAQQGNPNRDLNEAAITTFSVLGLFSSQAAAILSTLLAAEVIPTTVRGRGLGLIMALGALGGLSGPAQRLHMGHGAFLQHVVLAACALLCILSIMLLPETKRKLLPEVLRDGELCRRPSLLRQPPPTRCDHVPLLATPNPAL
Chain of hNGAL (lipocalin-2) (P80188 21-198): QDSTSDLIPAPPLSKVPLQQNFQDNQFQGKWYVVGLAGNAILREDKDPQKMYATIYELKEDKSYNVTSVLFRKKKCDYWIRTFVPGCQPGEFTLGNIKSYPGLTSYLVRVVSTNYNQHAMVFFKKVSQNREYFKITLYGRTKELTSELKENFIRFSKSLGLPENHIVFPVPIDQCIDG
Chain of Alexa Fluor 546-labelled metallothionein (rabbit apo-MT-2) (P18055 whole entry): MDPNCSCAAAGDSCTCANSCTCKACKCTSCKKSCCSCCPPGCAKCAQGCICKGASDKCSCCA
Chain of Alexa Fluor 546-transferrin from human serum (P02787 20-698): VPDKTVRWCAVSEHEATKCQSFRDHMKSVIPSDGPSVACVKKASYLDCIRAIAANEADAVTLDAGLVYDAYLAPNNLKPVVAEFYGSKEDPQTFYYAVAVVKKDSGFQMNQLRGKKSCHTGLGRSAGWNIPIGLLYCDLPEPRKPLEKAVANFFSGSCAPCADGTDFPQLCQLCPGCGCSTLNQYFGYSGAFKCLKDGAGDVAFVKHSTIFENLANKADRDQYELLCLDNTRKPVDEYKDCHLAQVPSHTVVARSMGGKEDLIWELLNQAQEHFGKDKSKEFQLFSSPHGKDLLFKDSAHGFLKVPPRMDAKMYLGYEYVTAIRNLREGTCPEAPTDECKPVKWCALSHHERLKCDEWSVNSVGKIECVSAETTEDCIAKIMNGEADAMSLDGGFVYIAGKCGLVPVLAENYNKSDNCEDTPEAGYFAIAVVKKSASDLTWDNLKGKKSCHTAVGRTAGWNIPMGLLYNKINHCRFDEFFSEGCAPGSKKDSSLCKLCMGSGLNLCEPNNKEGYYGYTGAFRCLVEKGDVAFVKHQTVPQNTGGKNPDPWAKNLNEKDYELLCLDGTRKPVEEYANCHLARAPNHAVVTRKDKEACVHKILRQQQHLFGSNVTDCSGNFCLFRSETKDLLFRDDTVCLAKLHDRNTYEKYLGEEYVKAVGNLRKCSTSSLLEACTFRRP

## Alexa Fluor 488 (A488)-PC3 (phytochelatin PC3) (peptide)
[1]
  EC50 with 500 pM hNGAL: 225 nM
[2]
  inhibition by 500 pM apical hNGAL of the apical decrease of 700 nM A488-PC3 in colon-like Caco-2 BBE Transwell monolayers (AUC over 8 h): 25%
[3]
  EC50: 18.6 nM
[4]
  internalization of A488-PC3 (up to 5.6 µM, 24 h) by colon-like Caco-2 BBE cells, two-site fit, first app KD: 90 nM

## Alexa Fluor 546-labelled metallothionein (rabbit apo-MT-2) (from UniProt P18055 1-62) (natural protein)
[2]
  inhibition by 500 pM apical hNGAL of the apical decrease of 700 nM A546-MT in colon-like Caco-2 BBE Transwell monolayers (AUC over 8 h): 40%

## Alexa Fluor 546-transferrin from human serum (from UniProt P02787 20-698) (natural protein)
[2]
  inhibition by 500 pM apical hNGAL of the apical decrease of 700 nM A546-Tf in colon-like Caco-2 BBE Transwell monolayers (AUC over 8 h): 25%

## hNGAL (lipocalin-2) (from UniProt P80188)
[5]
  Kd: 0.092 nM
